# US20250264471
# B1: Akt1-S473E-T308P (protein)
# chain: HHHHHHMDFRSGSPSDNSGAEEMEVSLAKPKHRVTMNEFEYLKLLGKGTFGKVILVKEKATGRYYAMKILKKEVIVAKDEVAHTLTENRVLQNSRHPFLTALKYSFQTHDRLCFVMEYANGGELFFHLSRERVFSEDRARFYGAEIVSALDYLHSEKNVVYRDLKLENLMLDKDGHIKITDFGLCKEGIKDGATMKTFCGTPEYLAPEVLEDNDYGRAVDWWGLGVVMYEMMCGRLPFYNQDHEKLFELILMEEIRFPRTLGPEAKSLLSGLLKKDPKQRLGGGSEDAKEIMQHRFFAGIVWQHVYEKKLSPPFKPQVTSETDTRYFDEEFTAQMITITPPDQDDSMECVDSERRPHFPQFEYSASSTA
# Molecular target: Biotin-Crosstide (Anaspec)
protein,measurement,value
B1,"KM (µM) (present results), peptide substrate",9 µM
